Assay results published in paper PMC12318183, “Structure reveals a regulation mechanism of plant outward-rectifying K^+ channel GORK by structural rearrangements in the CNBD–Ankyrin bridge” (Proceedings of the National Academy of Sciences of the …, 2025).

How the values were obtained:
[1] = molecular target: GORK(CA-ANK)_(AKT1) chimeric channel (Arabidopsis thaliana | Arabidopsis)
[2] = molecular target: the molecule itself; test: cryo-EM structure; single-particle cryo-EM of purified GORK at 4 mg/ml; SEC buffer 0.02% GDN, 150 mM KCl, 20 mM Tris pH 8.0, 2 mM DTT; consensus map and five maps from ANK-focused 3D classification

Chain of CIPK23/CBL1 protein kinase complex (Q93VD3 whole entry): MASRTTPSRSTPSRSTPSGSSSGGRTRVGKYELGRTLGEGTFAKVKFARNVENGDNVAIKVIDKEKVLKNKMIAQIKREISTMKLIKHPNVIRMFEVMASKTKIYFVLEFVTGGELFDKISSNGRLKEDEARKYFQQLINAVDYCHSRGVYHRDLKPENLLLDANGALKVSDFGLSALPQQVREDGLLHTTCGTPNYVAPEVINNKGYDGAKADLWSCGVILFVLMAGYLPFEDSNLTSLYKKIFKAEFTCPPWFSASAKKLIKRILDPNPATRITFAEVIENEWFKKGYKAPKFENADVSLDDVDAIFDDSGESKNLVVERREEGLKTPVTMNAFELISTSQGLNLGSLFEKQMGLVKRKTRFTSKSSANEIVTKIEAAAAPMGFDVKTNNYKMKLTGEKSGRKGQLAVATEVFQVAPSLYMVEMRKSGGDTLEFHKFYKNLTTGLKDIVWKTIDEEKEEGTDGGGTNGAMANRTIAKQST
Chain of CIPK23/CBL1 protein kinase complex (O81445 whole entry): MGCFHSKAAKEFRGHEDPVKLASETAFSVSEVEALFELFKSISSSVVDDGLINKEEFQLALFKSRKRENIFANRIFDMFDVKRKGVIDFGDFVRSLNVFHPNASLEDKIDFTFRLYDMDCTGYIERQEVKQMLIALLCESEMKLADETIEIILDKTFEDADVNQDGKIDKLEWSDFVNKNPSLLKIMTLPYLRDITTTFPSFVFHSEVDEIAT

outward K+ current of GORK(CA-ANK) (AKT1) in Xenopus oocytes with coexpressed CIPK23/CBL1 against without, two-electrode voltage clamp, at 70 mV [1] [fold]	Molecule	stoichiometry N [2]
3	CIPK23/CBL1 protein kinase complex (from UniProt Q93VD3 1-482; O81445 1-213)	–
–	GUARD CELL OUTWARD-RECTIFYING K+ (GORK) channel (natural protein, Arabidopsis thaliana, GORK outward-rectifying K+ channel, Arabidopsis thaliana, UniProt Q94A76; optimised synthetic coding DNA; positions counted from the initial Met; the model covers about residues 50-720; No step that removes a tag is described; Solubilised in LMNG/CHS, kept in GDN; also called GORKWT1; GORKWT2) GRLRRRQEIIDHEEEESNDDVSSRRGKLSLAETFRWLDSSEHRRIETDGHNDYKYIIHPKNRWYKAWEMFILVWAIYSSLFTPMEFGFFRGLPERLFVLDIVGQIAFLVDIVLQFFVAYRDTQTYRTVYKPTRIAFRYLKSHFLMDFIGCFPWDLIYKASGKHELVRYLLWIRLFRVRKVVEFFQRLEKDTRINYLFTRILKLLFVEVYCTHTAACIFYYLATTLPPENEGYTWIGSLKLGDYSYENFREIDLWKRYTTALYFAIVTMATVGYGDIHAVNLREMIFVMIYVSFDMVLGAYLIGNITALIVKGSNTERFRDKMNDLISFMNRKKLGRDLRSQITGHVRLQYDSHYTDTVMLQDIPASIRAKIAQLLYLPYIKKVPLFKGCSTEFINQIVIRLHEEYFLPGEVITEQGNVVDHLYFVCEGLLEALVTKTDGSEESVTLLGPHTSFGDISIICNISQPFTVRVCELCHLLRLDKQSFSNILEIYFHDGRTILNNIMEEKESNDRIKKLESDIVIHIGKQEAELALKVNSAAFQGDFYQLKSLIRSGADPNKTDYDGRSPLHLAACRGYEDITLFLIQEGVDVNLKDKFGHTPLFEAVKAGQEGVIGLLVKEGASFNLEDSGNFLCTTVAKGDSDFLKRLLSSGMNPNSEDYDHRTPLHVAASEGLFLMAKMLVEAGASVISKDRWGNSPLDEARLCGNKKLIKLLEDVKNAQSSIYPSSLRELQEERIERRKCTVFPFHPQEAKEERSRKHGVVVWIPSNLEKLIVTAAKELGLSDGASFVLLSEDQGRITDIDMISDGHKLYMISDTTDQT	4
